Key:
[1] = target: T1, recombinant Nitric oxide synthase interacting protein (NOSIP) (Homo sapiens (Human), UniProt Q9Y314 1-301); assay: ITC, 10 µM iNOS peptide in the chamber, 150 µM rNOSIP in syringe, 25 C
T1 construct: It was synthesized by GenScript, cloned in pET22b, expressed in E. coli BL21 (DE3) and purified on Ni-NTA and by gel filtration; A His tag is implied but never described; also called rNOSIP; recombinant NOSIP
T1 sequence: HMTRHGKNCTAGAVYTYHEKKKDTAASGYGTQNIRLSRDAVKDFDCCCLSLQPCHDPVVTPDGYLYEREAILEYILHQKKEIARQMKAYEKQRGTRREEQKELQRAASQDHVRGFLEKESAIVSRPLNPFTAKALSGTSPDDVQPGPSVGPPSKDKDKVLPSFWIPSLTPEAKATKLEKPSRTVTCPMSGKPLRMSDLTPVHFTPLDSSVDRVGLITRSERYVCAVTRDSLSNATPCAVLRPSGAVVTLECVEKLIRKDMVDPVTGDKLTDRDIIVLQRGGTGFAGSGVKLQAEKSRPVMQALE
Method: (§1) The predictions were tested for validation by […] (SPR). […] The other 3 peptides (Peptide-1, SEQ ID No: 25), (Peptide3, SEQ ID No: 27), and (peptide-4, SEQ ID No: 28) were less efficient in inhibiting interaction between iNOS and NOSIP as shown in FIG. 2(a). […] NOSIP and iNOS peptide (PP2) binding was measured by titrating 10 μM iNOS peptide in the chamber with 150 μM rNOSIP in syringe at 25° C. Top panel, raw heating power over time; Bottom panel, fit of integrated injection enthalpy over the mole ratio of the reactants.

[2] = target: T1, recombinant Nitric oxide synthase …; assay: ITC (MicroCal PEAQ), peptide in cell, rNOSIP in syringe, 25 C
Method: (§2) The 18 mer iNOS peptide (PP2) and small molecules were used for physical association of molecules in calorimetric analysis. The molecular association leads to thermodynamics changes such as Gibb's free energy change (ΔG), entropy change (ΔS), enthalpy change (ΔH) and number of binding sites (N) in interacting solution were investigated by isothermal calorimetry MICROCAL PEQ (Malvern) at 25° C. The sample cell were filled with peptides, small molecules and the reference cell was filled with 25 mM HEPES and 150 mM Sodium chloride, pH=7 and the syringe was filled with NOSIP solution (200 μM). The experiment consisted of multiple injections and each injection contained 1.5 μl of binding solution (recombinant NOSIP solution) with 120 second spacing time between subsequent injections. Sequential titrations were carried out and the sample solution was continuously stirred at 270 rpm by the rotating paddle attached to the syringe needle. Multiple injections of NOSIP made into the sample cell containing interacting solution of peptide and small molecules. The titration curves were analyzed using the analysis software provided with the calorimeter.
The 18 mer iNOS peptide (PP2) and five small molecules were used to analyze physical association in calorimetric analysis. The molecular association leads to thermodynamics changes such as Gibb's free energy change (ΔG), entropy change (ΔS), enthalpy change (ΔH) and number of binding sites (N) in interacting solution were investigated by isothermal calorimetry MICROCAL PEQ (Malvern) at 25° C. The sample cell were filled with peptides, small molecules and the reference cell was filled with 25 mM HEPES and 150 mM Sodium chloride, pH=7 and the syringe was filled with NOSIP solution (200 μM). The experiment consisted of multiple injections and each injection contained 1.5 μl of binding solution with 120 second spacing time between subsequent injections. Sequential titrations were carried out and the sample solution was continuously stirred at 270 rpm by the rotating paddle attached to the syringe needle. Multiple injections of NOSIP made into the sample cell containing interacting solution of peptide and small molecules. The titration curves were analyzed using the analysis software provided with the calorimeter.

[3] = target: T1, recombinant Nitric oxide synthase …; assay: ITC; this row is the reference of the fold change in Table 1
Method: as §2
The 18 mer iNOS peptide (PP2) and five small molecules were used to analyze physical association in calorimetric analysis. […] The titration curves were analyzed using the analysis software provided with the calorimeter.

[4] = target: T1, recombinant Nitric oxide synthase …; assay: ITC, 10 µM iNOS peptide in the chamber, 150 µM rNOSIP in syringe, 25 C; ITC, 25 C; 10 µM iNOS peptide in chamber, 150 µM rNOSIP in syringe
Method: as §1

-TΔS [1]: 0.459 kcal/mol
N [1]: 0.993
ΔG [1]: -8.61 kcal/mol
ΔH [1]: -9.07 kcal/mol
-TΔS [2]: -0.1 kcal/mol
Kd [2]: 548 nM
ΔG [2]: -8.54 kcal/mol
ΔH [2]: -8.44 kcal/mol
Fold Change (KD) [3]: 1
Kd [4]: 493 nM
B1: iNOS Peptide-2 (18 mer iNOS peptide) (peptide)
peptide: NQYYGSFKEAKIEEHLAR
notes: 18-residue iNOS-derived peptide, synthesized commercially by China peptides; also called PP2; PP-2
